Measurements reported in patent publication US20240018502A1.

Legend:
[1] = molecular target: human complement protein C3 (human) (UniProt P01024); assay: cell-based or functional assay
[2] = molecular target: proteinase-activated receptor 2 (PAR-2) (UniProt P55085); assay: cell-based or functional assay
Chain of proteinase-activated receptor 2 (PAR-2) (P55085 37-397 limits assumed): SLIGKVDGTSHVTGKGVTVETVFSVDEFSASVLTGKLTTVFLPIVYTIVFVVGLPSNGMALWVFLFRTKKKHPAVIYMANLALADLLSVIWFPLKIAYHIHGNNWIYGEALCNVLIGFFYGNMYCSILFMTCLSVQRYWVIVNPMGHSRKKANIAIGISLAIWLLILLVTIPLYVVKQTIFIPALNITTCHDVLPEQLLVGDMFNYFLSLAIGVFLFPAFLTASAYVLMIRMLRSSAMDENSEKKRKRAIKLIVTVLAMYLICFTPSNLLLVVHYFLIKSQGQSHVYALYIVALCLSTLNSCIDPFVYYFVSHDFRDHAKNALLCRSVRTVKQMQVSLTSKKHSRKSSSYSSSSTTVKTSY

Chain of human complement protein C3 (human) (P01024 23-667, chain 1 of 2): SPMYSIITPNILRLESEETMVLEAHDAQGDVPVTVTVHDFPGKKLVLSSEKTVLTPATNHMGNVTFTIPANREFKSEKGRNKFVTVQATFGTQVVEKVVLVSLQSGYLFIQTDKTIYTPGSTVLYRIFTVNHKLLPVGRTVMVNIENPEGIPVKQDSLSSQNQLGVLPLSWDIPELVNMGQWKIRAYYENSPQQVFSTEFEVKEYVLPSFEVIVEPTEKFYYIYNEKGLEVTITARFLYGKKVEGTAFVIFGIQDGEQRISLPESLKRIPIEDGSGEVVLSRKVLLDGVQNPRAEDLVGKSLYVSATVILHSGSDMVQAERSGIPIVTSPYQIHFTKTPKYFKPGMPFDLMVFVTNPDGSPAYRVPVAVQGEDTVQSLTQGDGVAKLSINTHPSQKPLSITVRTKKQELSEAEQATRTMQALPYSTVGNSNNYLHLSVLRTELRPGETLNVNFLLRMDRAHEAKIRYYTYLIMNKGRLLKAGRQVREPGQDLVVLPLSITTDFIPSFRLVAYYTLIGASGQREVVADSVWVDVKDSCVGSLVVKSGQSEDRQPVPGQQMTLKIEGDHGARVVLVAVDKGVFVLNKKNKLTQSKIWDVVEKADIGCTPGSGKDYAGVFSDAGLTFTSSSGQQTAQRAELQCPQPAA
Chain of human complement protein C3 (human) (P01024 672-1663, chain 2 of 2): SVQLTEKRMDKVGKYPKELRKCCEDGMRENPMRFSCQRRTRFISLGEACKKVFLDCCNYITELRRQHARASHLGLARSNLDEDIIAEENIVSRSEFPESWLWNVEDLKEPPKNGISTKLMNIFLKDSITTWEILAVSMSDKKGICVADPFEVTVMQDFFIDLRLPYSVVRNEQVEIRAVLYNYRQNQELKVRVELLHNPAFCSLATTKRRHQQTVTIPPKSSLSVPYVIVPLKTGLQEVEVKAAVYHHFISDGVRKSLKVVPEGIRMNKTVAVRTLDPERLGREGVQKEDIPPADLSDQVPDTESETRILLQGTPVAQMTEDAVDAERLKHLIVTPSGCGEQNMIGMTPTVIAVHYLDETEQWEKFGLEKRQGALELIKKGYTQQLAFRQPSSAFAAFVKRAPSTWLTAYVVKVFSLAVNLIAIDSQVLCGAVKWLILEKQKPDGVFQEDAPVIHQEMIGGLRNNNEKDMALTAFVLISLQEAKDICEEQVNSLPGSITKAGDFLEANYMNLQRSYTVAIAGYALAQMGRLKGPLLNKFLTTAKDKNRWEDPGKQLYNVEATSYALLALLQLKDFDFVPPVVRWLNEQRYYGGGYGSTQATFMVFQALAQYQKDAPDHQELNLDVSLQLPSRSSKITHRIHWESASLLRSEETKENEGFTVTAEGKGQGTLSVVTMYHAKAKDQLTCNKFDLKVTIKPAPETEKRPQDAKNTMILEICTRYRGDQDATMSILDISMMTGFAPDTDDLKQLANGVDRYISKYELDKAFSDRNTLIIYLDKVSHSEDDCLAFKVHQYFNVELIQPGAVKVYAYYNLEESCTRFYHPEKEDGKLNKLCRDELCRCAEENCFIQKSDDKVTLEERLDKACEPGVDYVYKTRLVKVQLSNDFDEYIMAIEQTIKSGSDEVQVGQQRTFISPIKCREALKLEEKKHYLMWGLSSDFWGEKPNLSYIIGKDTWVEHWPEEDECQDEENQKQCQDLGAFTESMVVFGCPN

EC50 (nM), cleavage of purified hC3 in vitro [1] [nM]	PAR-2 cell based assay ED50 and SKGR/SL kcat/Km, against wild-type MTSP-1 protease domain with C122S [2] [fold]	Binder
3.72		H40R/I41H/Y60gH/F97D/F99L/C122S/Q175M/Q192G/D217I/K224L (enzyme) VVGGTDADEGEWPWQVSLHALGQGRHCGASLISPNWLVSAAHCYIDDRGFRHSDPTQWTAFLGLHDQSQRSAPGVQERRLKRIISHPFFNDDTLDYDIALLELEKPAEYSSMVRPISLPDASHVFPAGKAIWVTGWGHTQYGGTGALILQKGEIRVINQTTCENLLPQMITPRMMCVGFLSGGVDSCGGDSGGPLSSVEADGRIFQAGVVSWGIGCAQRNLPGVYTRLPLFRDWIKENTGV
3.04		Q38H/I41S/D60bT/F60eS/Y60gW/D96I/F97N/T98G/F99L/C122S/G151N/Q175L/Q192D (enzyme) VVGGTDADEGEWPWQVSLHALGHGHSCGASLISPNWLVSAAHCYIDTRGSRWSDPTQWTAFLGLHDQSQRSAPGVQERRLKRIISHPFFNINGLDYDIALLELEKPAEYSSMVRPISLPDASHVFPAGKAIWVTGWGHTQYGGTNALILQKGEIRVINQTTCENLLPQLITPRMMCVGFLSGGVDSCDGDSGGPLSSVEADGRIFQAGVVSWGDGCAQRNKPGVYTRLPLFRDWIKENTGV
3.27		Q38Y/I41S/D60bT/F60eR/Y60gW/D96M/T98G/F99L/C122S/G151N/Q175L/Q192D (enzyme) VVGGTDADEGEWPWQVSLHALGYGHSCGASLISPNWLVSAAHCYIDTRGRRWSDPTQWTAFLGLHDQSQRSAPGVQERRLKRIISHPFFNMFGLDYDIALLELEKPAEYSSMVRPISLPDASHVFPAGKAIWVTGWGHTQYGGTNALILQKGEIRVINQTTCENLLPQLITPRMMCVGFLSGGVDSCDGDSGGPLSSVEADGRIFQAGVVSWGDGCAQRNKPGVYTRLPLFRDWIKENTGV
3.19		I41S/F99L/C122S/G151N/Q175M/Q192G/D217V (enzyme) VVGGTDADEGEWPWQVSLHALGQGHSCGASLISPNWLVSAAHCYIDDRGFRYSDPTQWTAFLGLHDQSQRSAPGVQERRLKRIISHPFFNDFTLDYDIALLELEKPAEYSSMVRPISLPDASHVFPAGKAIWVTGWGHTQYGGTNALILQKGEIRVINQTTCENLLPQMITPRMMCVGFLSGGVDSCGGDSGGPLSSVEADGRIFQAGVVSWGVGCAQRNKPGVYTRLPLFRDWIKENTGV
3.72		Q38H/I41A/D60bV/F60eR/Y60gW/F97D/F99L/C122S/G151H/Q175L/Q192D (enzyme) VVGGTDADEGEWPWQVSLHALGHGHACGASLISPNWLVSAAHCYIDVRGRRWSDPTQWTAFLGLHDQSQRSAPGVQERRLKRIISHPFFNDDTLDYDIALLELEKPAEYSSMVRPISLPDASHVFPAGKAIWVTGWGHTQYGGTHALILQKGEIRVINQTTCENLLPQLITPRMMCVGFLSGGVDSCDGDSGGPLSSVEADGRIFQAGVVSWGDGCAQRNKPGVYTRLPLFRDWIKENTGV
3.08		Q38Y/I41S/D60bT/Y60gW/D96M/F97N/T98G/F99L/C122S/G151N/Q175L/Q192D (enzyme) VVGGTDADEGEWPWQVSLHALGYGHSCGASLISPNWLVSAAHCYIDTRGFRWSDPTQWTAFLGLHDQSQRSAPGVQERRLKRIISHPFFNMNGLDYDIALLELEKPAEYSSMVRPISLPDASHVFPAGKAIWVTGWGHTQYGGTNALILQKGEIRVINQTTCENLLPQLITPRMMCVGFLSGGVDSCDGDSGGPLSSVEADGRIFQAGVVSWGDGCAQRNKPGVYTRLPLFRDWIKENTGV
	> 30	Modified MTSP-1 protease domain Q38H/I41S/D60bT/F60eS/Y60gW/F97D/ins97aV/T98P/F99L/C122S/G151H/Q175L/Q192E (enzyme) VVGGTDADEGEWPWQVSLHALGHGHSCGASLISPNWLVSAAHCYIDTRGSRWSDPTQWTAFLGLHDQSQRSAPGVQERRLKRIISHPFFNDDVPLDYDIALLELEKPAEYSSMVRPISLPDASHVFPAGKAIWVTGWGHTQYGGTHALILQKGEIRVINQTTCENLLPQLITPRMMCVGFLSGGVDSCEGDSGGPLSSVEADGRIFQAGVVSWGDGCAQRNKPGVYTRLPLFRDWIKENTGV
3.76		Q38H/I41A/D60bV/F60eR/Y60gW/D96F/F97Y/ins97aN/T98G/F99M/C122S/G151N/Q175L/Q192G (enzyme) VVGGTDADEGEWPWQVSLHALGHGHACGASLISPNWLVSAAHCYIDVRGRRWSDPTQWTAFLGLHDQSQRSAPGVQERRLKRIISHPFFNFYNGMDYDIALLELEKPAEYSSMVRPISLPDASHVFPAGKAIWVTGWGHTQYGGTNALILQKGEIRVINQTTCENLLPQLITPRMMCVGFLSGGVDSCGGDSGGPLSSVEADGRIFQAGVVSWGDGCAQRNKPGVYTRLPLFRDWIKENTGV
3.22		Q38R/I41S/D60bY/F60eD/ins97aV/F97D/T98P/F99L/C122S/G151N/Q175M/Q192A (enzyme) VVGGTDADEGEWPWQVSLHALGRGHSCGASLISPNWLVSAAHCYIDYRGDRYSDPTQWTAFLGLHDQSQRSAPGVQERRLKRIISHPFFNDDVPLDYDIALLELEKPAEYSSMVRPISLPDASHVFPAGKAIWVTGWGHTQYGGTNALILQKGEIRVINQTTCENLLPQMITPRMMCVGFLSGGVDSCAGDSGGPLSSVEADGRIFQAGVVSWGDGCAQRNKPGVYTRLPLFRDWIKENTGV
3.14		Q38H/I41A/D60bV/F60eR/Y60gW/D96F/F97S/ins97aH/T98G/F99L/C122S/G151N/Q175L/Q192G (enzyme) VVGGTDADEGEWPWQVSLHALGHGHACGASLISPNWLVSAAHCYIDVRGRRWSDPTQWTAFLGLHDQSQRSAPGVQERRLKRIISHPFFNFSHGLDYDIALLELEKPAEYSSMVRPISLPDASHVFPAGKAIWVTGWGHTQYGGTNALILQKGEIRVINQTTCENLLPQLITPRMMCVGFLSGGVDSCGGDSGGPLSSVEADGRIFQAGVVSWGDGCAQRNKPGVYTRLPLFRDWIKENTGV
3.09		Q38H/I41A/F60eH/Y60gW/ins97aE/F97T/T98G/F99L/C122S/Q175L/Q192A (enzyme) VVGGTDADEGEWPWQVSLHALGHGHACGASLISPNWLVSAAHCYIDDRGHRWSDPTQWTAFLGLHDQSQRSAPGVQERRLKRIISHPFFNDTEGLDYDIALLELEKPAEYSSMVRPISLPDASHVFPAGKAIWVTGWGHTQYGGTGALILQKGEIRVINQTTCENLLPQLITPRMMCVGFLSGGVDSCAGDSGGPLSSVEADGRIFQAGVVSWGDGCAQRNKPGVYTRLPLFRDWIKENTGV
2.88		Q38H/I41S/D60bT/F60eS/Y60gW/D96K/F97G/ins97aV/T98P/F99L/C122S/T150S/G151H/Q175L/Q192D/Q209L (enzyme) VVGGTDADEGEWPWQVSLHALGHGHSCGASLISPNWLVSAAHCYIDTRGSRWSDPTQWTAFLGLHDQSQRSAPGVQERRLKRIISHPFFNKGVPLDYDIALLELEKPAEYSSMVRPISLPDASHVFPAGKAIWVTGWGHTQYGGSHALILQKGEIRVINQTTCENLLPQLITPRMMCVGFLSGGVDSCDGDSGGPLSSVEADGRIFLAGVVSWGDGCAQRNKPGVYTRLPLFRDWIKENTGV
4.53		Q38H/I41S/D60bT/F60eS/Y60gW/D96Y/F97N/ins97aE/T98S/F99L/C122S/G151H/Q175L/Q192D (enzyme) VVGGTDADEGEWPWQVSLHALGHGHSCGASLISPNWLVSAAHCYIDTRGSRWSDPTQWTAFLGLHDQSQRSAPGVQERRLKRIISHPFFNYNESLDYDIALLELEKPAEYSSMVRPISLPDASHVFPAGKAIWVTGWGHTQYGGTHALILQKGEIRVINQTTCENLLPQLITPRMMCVGFLSGGVDSCDGDSGGPLSSVEADGRIFQAGVVSWGDGCAQRNKPGVYTRLPLFRDWIKENTGV
2.91		Q38H/I41A/D60bV/F60eI/Y60gW/F97T/ins97aE/T98G/F99L/C122S/G151N/Q175L/Q192D (enzyme) VVGGTDADEGEWPWQVSLHALGHGHACGASLISPNWLVSAAHCYIDVRGIRWSDPTQWTAFLGLHDQSQRSAPGVQERRLKRIISHPFFNDTEGLDYDIALLELEKPAEYSSMVRPISLPDASHVFPAGKAIWVTGWGHTQYGGTNALILQKGEIRVINQTTCENLLPQLITPRMMCVGFLSGGVDSCDGDSGGPLSSVEADGRIFQAGVVSWGDGCAQRNKPGVYTRLPLFRDWIKENTGV
3.13		Q38H/I41S/D60bT/F60eS/Y60gW/D96F/F97Y/ins97aD/T98G/F99L/C122S/G151H/Q175L/Q192D (enzyme) VVGGTDADEGEWPWQVSLHALGHGHSCGASLISPNWLVSAAHCYIDTRGSRWSDPTQWTAFLGLHDQSQRSAPGVQERRLKRIISHPFFNFYDGLDYDIALLELEKPAEYSSMVRPISLPDASHVFPAGKAIWVTGWGHTQYGGTHALILQKGEIRVINQTTCENLLPQLITPRMMCVGFLSGGVDSCDGDSGGPLSSVEADGRIFQAGVVSWGDGCAQRNKPGVYTRLPLFRDWIKENTGV
5.92		Q38H/I41S/D60bT/F60eS/Y60gW/D96K/F97D/ins97aA/T98P/F99L/C122S/G151N/Q175L/Q192D (enzyme) VVGGTDADEGEWPWQVSLHALGHGHSCGASLISPNWLVSAAHCYIDTRGSRWSDPTQWTAFLGLHDQSQRSAPGVQERRLKRIISHPFFNKDAPLDYDIALLELEKPAEYSSMVRPISLPDASHVFPAGKAIWVTGWGHTQYGGTNALILQKGEIRVINQTTCENLLPQLITPRMMCVGFLSGGVDSCDGDSGGPLSSVEADGRIFQAGVVSWGDGCAQRNKPGVYTRLPLFRDWIKENTGV
3.1		I41T/D60bW/F60eH/F97D/ins97aV/T98P/F99L/C122S/G151N/Q175L/Q192G (enzyme) VVGGTDADEGEWPWQVSLHALGQGHTCGASLISPNWLVSAAHCYIDWRGHRYSDPTQWTAFLGLHDQSQRSAPGVQERRLKRIISHPFFNDDVPLDYDIALLELEKPAEYSSMVRPISLPDASHVFPAGKAIWVTGWGHTQYGGTNALILQKGEIRVINQTTCENLLPQLITPRMMCVGFLSGGVDSCGGDSGGPLSSVEADGRIFQAGVVSWGDGCAQRNKPGVYTRLPLFRDWIKENTGV
3.06		Q38H/I41A/D60bW/ins97aV/F97D/T98P/F99L/C122S/I136M/Q192G/D217N (enzyme) VVGGTDADEGEWPWQVSLHALGHGHACGASLISPNWLVSAAHCYIDWRGFRYSDPTQWTAFLGLHDQSQRSAPGVQERRLKRIISHPFFNDDVPLDYDIALLELEKPAEYSSMVRPISLPDASHVFPAGKAMWVTGWGHTQYGGTGALILQKGEIRVINQTTCENLLPQQITPRMMCVGFLSGGVDSCGGDSGGPLSSVEADGRIFQAGVVSWGNGCAQRNKPGVYTRLPLFRDWIKENTGV
3.07		Q38H/I41S/D60bF/F60eT/ins97aV/F97D/T98P/F99L/C122S/H143Q/G151N/Q175L/Q192G (enzyme) VVGGTDADEGEWPWQVSLHALGHGHSCGASLISPNWLVSAAHCYIDFRGTRYSDPTQWTAFLGLHDQSQRSAPGVQERRLKRIISHPFFNDDVPLDYDIALLELEKPAEYSSMVRPISLPDASHVFPAGKAIWVTGWGQTQYGGTNALILQKGEIRVINQTTCENLLPQLITPRMMCVGFLSGGVDSCGGDSGGPLSSVEADGRIFQAGVVSWGDGCAQRNKPGVYTRLPLFRDWIKENTGV
3.19		Q38H/I41S/D60bT/F60eS/Y60gW/ins97aV/T98P/F99L/C122S/G151H/Q175L/Q192E (enzyme) VVGGTDADEGEWPWQVSLHALGHGHSCGASLISPNWLVSAAHCYIDTRGSRWSDPTQWTAFLGLHDQSQRSAPGVQERRLKRIISHPFFNDFVPLDYDIALLELEKPAEYSSMVRPISLPDASHVFPAGKAIWVTGWGHTQYGGTHALILQKGEIRVINQTTCENLLPQLITPRMMCVGFLSGGVDSCEGDSGGPLSSVEADGRIFQAGVVSWGDGCAQRNKPGVYTRLPLFRDWIKENTGV
